The Kd is the equilibrium constant for the complex coming apart.

Assay [1] addresses T1, FcγRIa extracellular domain with C-terminal His tag (human, UniProt P12314 16-292).
T1 construct: also called FcgRIa; CD64; not shown: His tag at the C terminus
Kind of assay: SPR, antibody captured, FcgR analyte. In general terms: SPR reads the build-up and loss of mass on a sensor chip optically.

Assay [2] concerns the target T2, FcγRIIb extracellular domain with C-terminal His tag (human, UniProt P31994 43-217).
T2 construct: extracellular domain; also called FcgRIIb; not shown: His tag at the C terminus
T2 sequence (looked up): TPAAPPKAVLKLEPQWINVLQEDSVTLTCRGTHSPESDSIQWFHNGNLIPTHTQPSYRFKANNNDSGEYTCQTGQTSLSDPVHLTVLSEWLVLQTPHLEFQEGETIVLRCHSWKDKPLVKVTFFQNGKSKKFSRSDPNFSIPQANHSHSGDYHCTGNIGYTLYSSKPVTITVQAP
Kind of assay: SPR, antibody captured, FcgR analyte.

The target in assay [3] is T3, FcγRIIa R type extracellular domain with C-terminal His tag (human, UniProt P12318 34-217).
T3 construct: extracellular domain; also called FcgRIIaR; not shown: His tag at the C terminus
T3 sequence (looked up): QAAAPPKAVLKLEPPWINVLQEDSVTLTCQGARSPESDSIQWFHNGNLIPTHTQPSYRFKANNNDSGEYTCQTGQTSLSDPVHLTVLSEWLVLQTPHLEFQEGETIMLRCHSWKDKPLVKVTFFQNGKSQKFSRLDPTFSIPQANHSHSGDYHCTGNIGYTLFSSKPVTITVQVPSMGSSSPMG
Kind of assay: SPR, antibody captured, FcgR analyte.

The target of assay [4] is T2, FcγRIIb extracellular domain with …. Kind of assay: SPR; KD of IL6R-B3/IL6R-L divided by KD of variant.
In assay [5] the target is T3, FcγRIIa R type extracellular domain …. Kind of assay: SPR; KD of IL6R-B3/IL6R-L divided by KD of variant.

T1 sequence (P12314 16-292): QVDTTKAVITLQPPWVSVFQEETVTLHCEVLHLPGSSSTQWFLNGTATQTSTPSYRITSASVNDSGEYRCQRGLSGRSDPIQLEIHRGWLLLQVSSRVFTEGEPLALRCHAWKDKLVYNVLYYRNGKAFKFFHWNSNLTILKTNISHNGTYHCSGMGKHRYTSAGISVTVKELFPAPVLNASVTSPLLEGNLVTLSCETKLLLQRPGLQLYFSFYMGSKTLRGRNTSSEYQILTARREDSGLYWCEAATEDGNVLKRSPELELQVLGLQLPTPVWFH

B1: IL6R-BP483/IL6R-L (antibody, human IgG1, kappa, name in EU numbering)
heavy: QVQLQESGPGLVKPSETLSLTCAVSGHSISHDHAWSWVRQPPGEGLEWIGFISYSGITNYNPSLQGRVTISRDNSKNTLYLQMNSLRAEDTAVYYCARSLARTTAMDYWGEGTLVTVSSASTKGPSVFPLAPSSKSTSGGTAALGCLVKDYFPEPVTVSWNSGALTSGVHTFPAVLQSSGLYSLSSVVTVPSSSLGTQTYICNVNHKPSNTKVDKKVEPKSCDKTHTCPPCPAPDLLGDDSVFLFPPKPKDTLMISRTPEVTCVVVDLAEEDGEVKFNWYVDGVEVHNAKTKPREEQYNSTYRVVSVLTVLHQDWLNGKEYKCKVSNKALPAPIEKTISKAKGQPREPQVYTLPPSRDELTKNQVSLTCLVKGFYPSDIAVEWESNGQPENNYKTTPPVLDSDGSFFLYSKLTVDKSRWQQGNVFSCSVMHEALHNHYTQESLSLSP
light: not shown
notes: human IgG1
In the case of B1, the equilibrium dissociation constant (Kd) is 1.3 nM in assay [1], 78 nM in assay [2] and 1300 nM in assay [3]. For the same molecule, the “Relative FcgRIIb-binding Activity” value in assay [4] came out at 39.6. Besides, in assay [5], the “Relative FcgRIIaR-binding Activity” value turned out to be 0.8.

B2: IL6R-BP509/IL6R-L (antibody, human IgG1, kappa, name in EU numbering)
heavy: QVQLQESGPGLVKPSETLSLTCAVSGHSISHDHAWSWVRQPPGEGLEWIGFISYSGITNYNPSLQGRVTISRDNSKNTLYLQMNSLRAEDTAVYYCARSLARTTAMDYWGEGTLVTVSSASTKGPSVFPLAPSSKSTSGGTAALGCLVKDYFPEPVTVSWNSGALTSGVHTFPAVLQSSGLYSLSSVVTVPSSSLGTQTYICNVNHKPSNTKVDKKVEPKSCDKTHTCPPCPAPDLLGDDSVFLFPPKPKDTLMISRTPEVTCVVIDVAEEDGDVKFNWYVDGVEVHNAKTKPREEQDNSTYRVVSVLTVLHQDWLNGKEYKCKVSNKALPAPIEKTISKAKGQPREPQVYTLPPSRDELTKNQVSLTCLVKGFYPSDIAVEWESNGQPENNYKTTPPVLDSDGSFFLYSKLTVDKSRWQQGNVFSCSVMHEALHNHYTQESLSLSP
light: not shown
notes: human IgG1
For the molecule B2, the Kd in assay [1] was determined as 1.1 nM; in assay [2] it was 18 nM; in assay [3], 520 nM. In addition, in assay [4], the “Relative FcgRIIb-binding Activity” value was 174. Besides, the “Relative FcgRIIaR-binding Activity” value in assay [5] is 2.1.

B3: IL6R-BP492/IL6R-L (antibody, human IgG1, kappa, name in EU numbering)
heavy: QVQLQESGPGLVKPSETLSLTCAVSGHSISHDHAWSWVRQPPGEGLEWIGFISYSGITNYNPSLQGRVTISRDNSKNTLYLQMNSLRAEDTAVYYCARSLARTTAMDYWGEGTLVTVSSASTKGPSVFPLAPSSKSTSGGTAALGCLVKDYFPEPVTVSWNSGALTSGVHTFPAVLQSSGLYSLSSVVTVPSSSLGTQTYICNVNHKPSNTKVDKKVEPKSCDKTHTCPPCPAPELLGGDSVFLFPPKPKDTLMISRTPEVTCVVIDVAEEDGEVKFNWYVDGVEVHNAKTKPREEQYNSTYRVVSVLTVLHQDWLNGKEYKCKVSNKALPAPIEKTISKAKGQPREPQVYTLPPSRDELTKNQVSLTCLVKGFYPSDIAVEWESNGQPENNYKTTPPVLDSDGSFFLYSKLTVDKSRWQQGNVFSCSVMHEALHNHYTQESLSLSP
light: not shown
notes: human IgG1
For B3, the dissociation constant (Kd) in assay [1] was 0.79 nM; in assay [2] it was 24 nM; in assay [3], 920 nM. In addition, the “Relative FcgRIIb-binding Activity” value in assay [4] amounted to 131. For the same molecule, the “Relative FcgRIIaR-binding Activity” value in assay [5] stood at 1.2.

B4: IL6R-BP505/IL6R-L (antibody, human IgG1, kappa, name in EU numbering)
heavy: QVQLQESGPGLVKPSETLSLTCAVSGHSISHDHAWSWVRQPPGEGLEWIGFISYSGITNYNPSLQGRVTISRDNSKNTLYLQMNSLRAEDTAVYYCARSLARTTAMDYWGEGTLVTVSSASTKGPSVFPLAPSSKSTSGGTAALGCLVKDYFPEPVTVSWNSGALTSGVHTFPAVLQSSGLYSLSSVVTVPSSSLGTQTYICNVNHKPSNTKVDKKVEPKSCDKTHTCPPCPAPDLLGDDSVFLFPPKPKDTLMISRTPEVTCVVIDVAEEDGDVKFNWYVDGVEVHNAKTKPREEQYNSTYRVVSVLTVLHQDWLNGKEYKCKVSNKALPAPIEKTISKAKGQPREPQVYTLPPSRDELTKNQVSLTCLVKGFYPSDIAVEWESNGQPENNYKTTPPVLDSDGSFFLYSKLTVDKSRWQQGNVFSCSVMHEALHNHYTQESLSLSP
light: not shown
notes: human IgG1
For B4, the equilibrium dissociation constant (Kd) in assay [1] amounted to 1.1 nM; in assay [2], 21 nM; in assay [3] it was 430 nM. For the same molecule, the “Relative FcgRIIb-binding Activity” value in assay [4] was found to be 144. In addition, the “Relative FcgRIIaR-binding Activity” value in assay [5] amounted to 2.5.

B5: IL6R-BP508/IL6R-L (antibody, human IgG1, kappa, name in EU numbering)
heavy: QVQLQESGPGLVKPSETLSLTCAVSGHSISHDHAWSWVRQPPGEGLEWIGFISYSGITNYNPSLQGRVTISRDNSKNTLYLQMNSLRAEDTAVYYCARSLARTTAMDYWGEGTLVTVSSASTKGPSVFPLAPSSKSTSGGTAALGCLVKDYFPEPVTVSWNSGALTSGVHTFPAVLQSSGLYSLSSVVTVPSSSLGTQTYICNVNHKPSNTKVDKKVEPKSCDKTHTCPPCPAPDLLGDDSVFLFPPKPKDTLMISRTPEVTCVVIDVAEEDGPVKFNWYVDGVEVHNAKTKPREEQDNSTYRVVSVLTVLHQDWLNGKEYKCKVSNKALPAPIEKTISKAKGQPREPQVYTLPPSRDELTKNQVSLTCLVKGFYPSDIAVEWESNGQPENNYKTTPPVLDSDGSFFLYSKLTVDKSRWQQGNVFSCSVMHEALHNHYTQESLSLSP
light: not shown
notes: human IgG1
As for B5, the equilibrium dissociation constant (Kd) amounted to 1.4 nM in assay [1], 21 nM in assay [2] and 540 nM in assay [3]. The “Relative FcgRIIb-binding Activity” value in assay [4] stood at 149. The “Relative FcgRIIaR-binding Activity” value in assay [5] came to 2.

B6: IL6R-BP494/IL6R-L (antibody, human IgG1, kappa, name in EU numbering)
heavy: QVQLQESGPGLVKPSETLSLTCAVSGHSISHDHAWSWVRQPPGEGLEWIGFISYSGITNYNPSLQGRVTISRDNSKNTLYLQMNSLRAEDTAVYYCARSLARTTAMDYWGEGTLVTVSSASTKGPSVFPLAPSSKSTSGGTAALGCLVKDYFPEPVTVSWNSGALTSGVHTFPAVLQSSGLYSLSSVVTVPSSSLGTQTYICNVNHKPSNTKVDKKVEPKSCDKTHTCPPCPAPELLGDDSVFLFPPKPKDTLMISRTPEVTCVVVDVAEEDGEVKFNWYVDGVEVHNAKTKPREEQDNSTYRVVSVLTVLHQDWLNGKEYKCKVSNKALPRPIEKTISKAKGQPREPQVYTLPPSRDELTKNQVSLTCLVKGFYPSDIAVEWESNGQPENNYKTTPPVLDSDGSFFLYSKLTVDKSRWQQGNVFSCSVMHEALHNHYTQESLSLSP
light: not shown
notes: human IgG1
For B6, the dissociation constant (Kd) in assay [1] amounted to 3.9 nM; in assay [2], 6.6 nM; in assay [3] it was 250 nM. For the same molecule, in assay [4], the “Relative FcgRIIb-binding Activity” value is 470. Moreover, in assay [5], the “Relative FcgRIIaR-binding Activity” value worked out at 4.3.

B7: IL6R-BP504/IL6R-L (antibody, human IgG1, kappa, name in EU numbering)
heavy: QVQLQESGPGLVKPSETLSLTCAVSGHSISHDHAWSWVRQPPGEGLEWIGFISYSGITNYNPSLQGRVTISRDNSKNTLYLQMNSLRAEDTAVYYCARSLARTTAMDYWGEGTLVTVSSASTKGPSVFPLAPSSKSTSGGTAALGCLVKDYFPEPVTVSWNSGALTSGVHTFPAVLQSSGLYSLSSVVTVPSSSLGTQTYICNVNHKPSNTKVDKKVEPKSCDKTHTCPPCPAPDLLGDDSVFLFPPKPKDTLMISRTPEVTCVVIDVAEEDGPVKFNWYVDGVEVHNAKTKPREEQYNSTYRVVSVLTVLHQDWLNGKEYKCKVSNKALPAPIEKTISKAKGQPREPQVYTLPPSRDELTKNQVSLTCLVKGFYPSDIAVEWESNGQPENNYKTTPPVLDSDGSFFLYSKLTVDKSRWQQGNVFSCSVMHEALHNHYTQESLSLSP
light: not shown
notes: human IgG1
As for B7, the figures for the Kd in assay [1], in assay [2] and in assay [3] were 1.4 nM, 24 nM and 450 nM, respectively. In assay [4], the “Relative FcgRIIb-binding Activity” value is 127. Moreover, the “Relative FcgRIIaR-binding Activity” value in assay [5] was determined as 2.4.

B8: IL6R-BP500/IL6R-L (antibody, human IgG1, kappa, name in EU numbering)
heavy: QVQLQESGPGLVKPSETLSLTCAVSGHSISHDHAWSWVRQPPGEGLEWIGFISYSGITNYNPSLQGRVTISRDNSKNTLYLQMNSLRAEDTAVYYCARSLARTTAMDYWGEGTLVTVSSASTKGPSVFPLAPSSKSTSGGTAALGCLVKDYFPEPVTVSWNSGALTSGVHTFPAVLQSSGLYSLSSVVTVPSSSLGTQTYICNVNHKPSNTKVDKKVEPKSCDKTHTCPPCPAPELLGDDSVFLFPPKPKDTLMISRTPEVTCVVIDVAEEDGEVKFNWYVDGVEVHNAKTKPREEQDNSTYRVVSVLTVLHQDWLNGKEYKCKVSNKALPAPIEKTISKAKGQPREPQVYTLPPSRDELTKNQVSLTCLVKGFYPSDIAVEWESNGQPENNYKTTPPVLDSDGSFFLYSKLTVDKSRWQQGNVFSCSVMHEALHNHYTQESLSLSP
light: not shown
notes: human IgG1
For B8, the dissociation constant Kd in assay [1] turned out to be 2.3 nM; in assay [2], 24 nM; in assay [3], 720 nM. For the same molecule, the “Relative FcgRIIb-binding Activity” value in assay [4] is 128. Further, the “Relative FcgRIIaR-binding Activity” value in assay [5] turned out to be 1.5.

B9: IL6R-BP484/IL6R-L (antibody, human IgG1, kappa, name in EU numbering)
heavy: QVQLQESGPGLVKPSETLSLTCAVSGHSISHDHAWSWVRQPPGEGLEWIGFISYSGITNYNPSLQGRVTISRDNSKNTLYLQMNSLRAEDTAVYYCARSLARTTAMDYWGEGTLVTVSSASTKGPSVFPLAPSSKSTSGGTAALGCLVKDYFPEPVTVSWNSGALTSGVHTFPAVLQSSGLYSLSSVVTVPSSSLGTQTYICNVNHKPSNTKVDKKVEPKSCDKTHTCPPCPAPDLLGDDSVFLFPPKPKDTLMISRTPEVTCVVVDVAEDDGEVKFNWYVDGVEVHNAKTKPREEQYNSTYRVVSVLTVLHQDWLNGKEYKCKVSNKALPAPIEKTISKAKGQPREPQVYTLPPSRDELTKNQVSLTCLVKGFYPSDIAVEWESNGQPENNYKTTPPVLDSDGSFFLYSKLTVDKSRWQQGNVFSCSVMHEALHNHYTQESLSLSP
light: not shown
notes: human IgG1
For the molecule B9, the figures for the Kd in assay [1], in assay [2] and in assay [3] were 0.82 nM, 46 nM and 780 nM, respectively. Further, the “Relative FcgRIIb-binding Activity” value in assay [4] was found to be 67.6. Besides, the “Relative FcgRIIaR-binding Activity” value in assay [5] is 1.4.

These data come from patent US20220411483A1 (Chugai, published 2022).
